# In the RNAGym collection of RNA variant scans (doi:10.7554/elife.80360):
# B1: Hairpin Ribozyme (parent)
# chain: GUCCUCUUUCACGUGCGCGUGAAAGAGAGAAGUGAACCAGAGAAACACACGUUGUGGUAUAUUACCUGGUA
# Variants of: B1
# Experiment: self-cleavage, relative activity (ratio to wild type); higher = more cleavage; co-transcriptional
row,Variant,self-cleavage
1,GUCCUCUUUCACGUGCGCGUGAAAGAGAGAAGUGAACCAGAGAAACACAGGUUGUGGUAUAUUACAUGGUA [C50G C66A],0.193
2,GUCCUCUUUCACGUGCGCGUGAAAGAGAGAAGUGAACCAGAGAAACACUCGUUGUGGUAUAUUACCUUGUA [A49U G68U],0.128
3,GUCCUCUUUCACGUGCGCGUGAAAGAGAGAAGUGAACCAGAGAAACACUCGUUGUGGUAUAUUACCUCGUA [A49U G68C],0.14
4,GUCCUCUUUCACGUGCGCGUGAAAGAGAGAAGUGAACCAGAGAAACACAAGUUGUGGUAUAUUACCUGGUG [C50A A71G],0.253
5,GUCCUCUUUCACGUGCGCGUGAAAGAGAGAAGUGAACCAGAGAAACACAGGUUGUAGUAUAUUACCUGGUA [C50G G56A],0.226
6,GUCCUCUUUCACGUGCGCGUGAAAGAGAGAAGUGAACCAGAGAAACACAGGUUGUCGUAUAUUACCUGGUA [C50G G56C],0.0923
7,GUCCUCUUUCACGUGCGCGUGAAAGAGAGAAGUGAACCAGAGAAACACAGGUUGUUGUAUAUUACCUGGUA [C50G G56U],0.124
8,GUCCUCUUUCACGUGCGCGUGAAAGAGAGAAGUGAACCAGAGAAACACUCGUUGUGGUAUAUUAGCUGGUA [A49U C65G],0.171
9,GUCCUCUUUCACGUGCGCGUGAAAGAGAGAAGUGAACCAGAGAAACACAAGUUGUGGUCUAUUACCUGGUA [C50A A59C],0.167
10,GUCCUCUUUCACGUGCGCGUGAAAGAGAGAAGUGAACCAGAGAAACACAAGUUGUGGUGUAUUACCUGGUA [C50A A59G],0.0618
11,GUCCUCUUUCACGUGCGCGUGAAAGAGAGAAGUGAACCAGAGAAACACUCGUUGUGGUAUAGUACCUGGUA [A49U U62G],0.0483
12,GUCCUCUUUCACGUGCGCGUGAAAGAGAGAAGUGAACCAGAGAAACACAAGUUGUGGUAAAUUACCUGGUA [C50A U60A],0.388
13,GUCCUCUUUCACGUGCGCGUGAAAGAGAGAAGUGAACCAGAGAAACACUCGUUGUGGUAUCUUACCUGGUA [A49U A61C],0.0823
14,GUCCUCUUUCACGUGCGCGUGAAAGAGAGAAGUGAACCAGAGAAACACAUGUUGUGGUAUAUUACUUGGUA [C50U C66U],0.159
15,GUCCUCUUUCACGUGCGCGUGAAAGAGAGAAGUGAACCAGAGAAACACAUGUUGUCGUAUAUUACCUGGUA [C50U G56C],0.19
16,GUCCUCUUUCACGUGCGCGUGAAAGAGAGAAGUGAACCAGAGAAACACAGGUUGUGGUAAAUUACCUGGUA [C50G U60A],0.268
17,GUCCUCUUUCACGUGCGCGUGAAAGAGAGAAGUGAACCAGAGAAACACAGGUUGUGGUAGAUUACCUGGUA [C50G U60G],0.158
18,GUCCUCUUUCACGUGCGCGUGAAAGAGAGAAGUGAACCAGAGAAACACAAGUUGUGGUAUAUUACUUGGUA [C50A C66U],0.15
19,GUCCUCUUUCACGUGCGCGUGAAAGAGAGAAGUGAACCAGAGAAACACAAGUUGUGGUAUAUUACGUGGUA [C50A C66G],0.217
20,GUCCUCUUUCACGUGCGCGUGAAAGAGAGAAGUGAACCAGAGAAACACUCGUUGUGGUUUAUUACCUGGUA [A49U A59U],0.178
21,GUCCUCUUUCACGUGCGCGUGAAAGAGAGAAGUGAACCAGAGAAACACUCGUUGUGGUCUAUUACCUGGUA [A49U A59C],0.179
22,GUCCUCUUUCACGUGCGCGUGAAAGAGAGAAGUGAACCAGAGAAACACAGGUCGUGGUAUAUUACCUGGUA [C50G U53C],0.327
23,GUCCUCUUUCACGUGCGCGUGAAAGAGAGAAGUGAACCAGAGAAACACUCUUUGUGGUAUAUUACCUGGUA [A49U G51U],0.135
24,GUCCUCUUUCACGUGCGCGUGAAAGAGAGAAGUGAACCAGAGAAACACUCGUUGUGUUAUAUUACCUGGUA [A49U G57U],0.228
25,GUCCUCUUUCACGUGCGCGUGAAAGAGAGAAGUGAACCAGAGAAACACUCGUUGUGAUAUAUUACCUGGUA [A49U G57A],0.192
26,GUCCUCUUUCACGUGCGCGUGAAAGAGAGAAGUGAACCAGAGAAACACAGGUUGUGAUAUAUUACCUGGUA [C50G G57A],0.0857

row,Variant,self-cleavage
1,GUCCUCUUUCACGUGCGCGUGAAAGAGAGAAGUGAACCAGAGAAACACAGGUUGUGCUAUAUUACCUGGUA [C50G G57C],0.181
2,GUCCUCUUUCACGUGCGCGUGAAAGAGAGAAGUGAACCAGAGAAACACAAGUUGUGGUAUAUUACCGGGUA [C50A U67G],0.118
3,GUCCUCUUUCACGUGCGCGUGAAAGAGAGAAGUGAACCAGAGAAACACAAGUUGUGGUAUAUUACCCGGUA [C50A U67C],0.0958
4,GUCCUCUUUCACGUGCGCGUGAAAGAGAGAAGUGAACCAGAGAAACACAGGUUGUGGUAUAAUACCUGGUA [C50G U62A],0.213
5,GUCCUCUUUCACGUGCGCGUGAAAGAGAGAAGUGAACCAGAGAAACACAAGUUGUGAUAUAUUACCUGGUA [C50A G57A],0.138
6,GUCCUCUUUCACGUGCGCGUGAAAGAGAGAAGUGAACCAGAGAAACACAUGUUCUGGUAUAUUACCUGGUA [C50U G54C],0.534
7,GUCCUCUUUCACGUGCGCGUGAAAGAGAGAAGUGAACCAGAGAAACACAGGUUGUGGUAUAUCACCUGGUA [C50G U63C],0.114
8,GUCCUCUUUCACGUGCGCGUGAAAGAGAGAAGUGAACCAGAGAAACACAGGUUGUGGUAUAUAACCUGGUA [C50G U63A],0.177
9,GUCCUCUUUCACGUGCGCGUGAAAGAGAGAAGUGAACCAGAGAAACACAAGUUGUCGUAUAUUACCUGGUA [C50A G56C],0.104
10,GUCCUCUUUCACGUGCGCGUGAAAGAGAGAAGUGAACCAGAGAAACACAAGUUGUUGUAUAUUACCUGGUA [C50A G56U],0.274
11,GUCCUCUUUCACGUGCGCGUGAAAGAGAGAAGUGAACCAGAGAAACACAGGAUGUGGUAUAUUACCUGGUA [C50G U52A],0.216
12,GUCCUCUUUCACGUGCGCGUGAAAGAGAGAAGUGAACCAGAGAAACACAAGUCGUGGUAUAUUACCUGGUA [C50A U53C],0.296
13,GUCCUCUUUCACGUGCGCGUGAAAGAGAGAAGUGAACCAGAGAAACACAUGUUGUGGUAUAUUAUCUGGUA [C50U C65U],0.199
14,GUCCUCUUUCACGUGCGCGUGAAAGAGAGAAGUGAACCAGAGAAACACAAGUUGUGGUAUAUUUCCUGGUA [C50A A64U],0.13
15,GUCCUCUUUCACGUGCGCGUGAAAGAGAGAAGUGAACCAGAGAAACACAAGUUGUGGUAUAUUCCCUGGUA [C50A A64C],0.124
16,GUCCUCUUUCACGUGCGCGUGAAAGAGAGAAGUGAACCAGAGAAACACAGGUUGUGGUAUAUUAGCUGGUA [C50G C65G],0.161
17,GUCCUCUUUCACGUGCGCGUGAAAGAGAGAAGUGAACCAGAGAAACACUCGAUGUGGUAUAUUACCUGGUA [A49U U52A],0.209
18,GUCCUCUUUCACGUGCGCGUGAAAGAGAGAAGUGAACCAGAGAAACACAUGUUGUGGUAUAUUACCUGGUA [C50U],0.396
19,GUCCUCUUUCACGUGCGCGUGAAAGAGAGAAGUGAACCAGAGAAACACAAGUUGUGGUAUAUUACCUGGUA [C50A],0.283
20,GUCCUCUUUCACGUGCGCGUGAAAGAGAGAAGUGAACCAGAGAAACACAGGUUGUGGUAUAUUACCUGGUA [C50G],0.275
21,GUCCUCUUUCACGUGCGCGUGAAAGAGAGAAGUGAACCAGAGAAACACAGGUUGUGGUAUAUUACCUCGUA [C50G G68C],0.0881
22,GUCCUCUUUCACGUGCGCGUGAAAGAGAGAAGUGAACCAGAGAAACACAGUUUGUGGUAUAUUACCUGGUA [C50G G51U],0.375
23,GUCCUCUUUCACGUGCGCGUGAAAGAGAGAAGUGAACCAGAGAAACACAGAUUGUGGUAUAUUACCUGGUA [C50G G51A],0.249
24,GUCCUCUUUCACGUGCGCGUGAAAGAGAGAAGUGAACCAGAGAAACACUCGUUGUGGUAUAUUACCUGGGA [A49U U70G],0.39
25,GUCCUCUUUCACGUGCGCGUGAAAGAGAGAAGUGAACCAGAGAAACACAAGUUUUGGUAUAUUACCUGGUA [C50A G54U],0.97
26,GUCCUCUUUCACGUGCGCGUGAAAGAGAGAAGUGAACCAGAGAAACACAAGUUGUGGUAUAUUACCUCGUA [C50A G68C],0.178

row,Variant,self-cleavage
1,GUCCUCUUUCACGUGCGCGUGAAAGAGAGAAGUGAACCAGAGAAACACAAGUUGUGGUAUAUUACCUUGUA [C50A G68U],0.15
2,GUCCUCUUUCACGUGCGCGUGAAAGAGAGAAGUGAACCAGAGAAACACAAGUUGUGGUAUAUUACCUAGUA [C50A G68A],0.143
3,GUCCUCUUUCACGUGCGCGUGAAAGAGAGAAGUGAACCAGAGAAACACAGGUUGAGGUAUAUUACCUGGUA [C50G U55A],0.153
4,GUCCUCUUUCACGUGCGCGUGAAAGAGAGAAGUGAACCAGAGAAACACAGGUUGGGGUAUAUUACCUGGUA [C50G U55G],0.368
5,GUCCUCUUUCACGUGCGCGUGAAAGAGAGAAGUGAACCAGAGAAACACUCGUUGUGGUACAUUACCUGGUA [A49U U60C],0.331
6,GUCCUCUUUCACGUGCGCGUGAAAGAGAGAAGUGAACCAGAGAAACACAGGUUGUGGUAUAUUACCUGGGA [C50G U70G],0.314
7,GUCCUCUUUCACGUGCGCGUGAAAGAGAGAAGUGAACCAGAGAAACACUCGUUGUGGUAUAUUUCCUGGUA [A49U A64U],0.0352
8,GUCCUCUUUCACGUGCGCGUGAAAGAGAGAAGUGAACCAGAGAAACACUCGUUGUGGUAUAUUACCUGGUG [A49U A71G],0.221
9,GUCCUCUUUCACGUGCGCGUGAAAGAGAGAAGUGAACCAGAGAAACACUCGUUGUGGUAUAUUACCUGGUU [A49U A71U],0.146
10,GUCCUCUUUCACGUGCGCGUGAAAGAGAGAAGUGAACCAGAGAAACACUCGUUGUGGUAUAUUACCUGUUA [A49U G69U],0.193
11,GUCCUCUUUCACGUGCGCGUGAAAGAGAGAAGUGAACCAGAGAAACACUCGUUGUGGUAUAUUACCUGCUA [A49U G69C],0.139
12,GUCCUCUUUCACGUGCGCGUGAAAGAGAGAAGUGAACCAGAGAAACACAAGUUGUGGUAUAUUACCUGCUA [C50A G69C],0.12
13,GUCCUCUUUCACGUGCGCGUGAAAGAGAGAAGUGAACCAGAGAAACACUCGUUCUGGUAUAUUACCUGGUA [A49U G54C],0.28
14,GUCCUCUUUCACGUGCGCGUGAAAGAGAGAAGUGAACCAGAGAAACACAGGUUGUGGUAUGUUACCUGGUA [C50G A61G],0.175
15,GUCCUCUUUCACGUGCGCGUGAAAGAGAGAAGUGAACCAGAGAAACACAGGUUGUGGUAUCUUACCUGGUA [C50G A61C],0.0643
16,GUCCUCUUUCACGUGCGCGUGAAAGAGAGAAGUGAACCAGAGAAACACAGGUUGUGGUAUUUUACCUGGUA [C50G A61U],0.248
17,GUCCUCUUUCACGUGCGCGUGAAAGAGAGAAGUGAACCAGAGAAACACAGGUUGUGGUAUAUUGCCUGGUA [C50G A64G],0.164
18,GUCCUCUUUCACGUGCGCGUGAAAGAGAGAAGUGAACCAGAGAAACACUCGUUGGGGUAUAUUACCUGGUA [A49U U55G],0.366
19,GUCCUCUUUCACGUGCGCGUGAAAGAGAGAAGUGAACCAGAGAAACACAAUUUGUGGUAUAUUACCUGGUA [C50A G51U],0.399
20,GUCCUCUUUCACGUGCGCGUGAAAGAGAGAAGUGAACCAGAGAAACACAAGUUGUGGUAUCUUACCUGGUA [C50A A61C],0.173
21,GUCCUCUUUCACGUGCGCGUGAAAGAGAGAAGUGAACCAGAGAAACACAGGUUGUGGUUUAUUACCUGGUA [C50G A59U],0.112
22,GUCCUCUUUCACGUGCGCGUGAAAGAGAGAAGUGAACCAGAGAAACACAUGUUGUGGUAUGUUACCUGGUA [C50U A61G],0.199
23,GUCCUCUUUCACGUGCGCGUGAAAGAGAGAAGUGAACCAGAGAAACACAAGUUGUGGUAUAUCACCUGGUA [C50A U63C],0.198
24,GUCCUCUUUCACGUGCGCGUGAAAGAGAGAAGUGAACCAGAGAAACACUCGUUGUGGUAUAUCACCUGGUA [A49U U63C],0.172
